# Reference: patent publication US20180080021
# B1: recombinant R293W mutant KIF3B motor domain (amino acids 1-365) with N-terminal 6x-Histidine tag (protein)
# chain: MSKLKSSESVRVVVRCRPMNGKEKAASYDKVVDVDVKLGQVSVKNPKGTAHEMPKTFTFDAVYDWNAKQFELYDETFRPLVDSVLQGFNGTIFAYGQTGTGKTYTMEGIRGDPEKRGVIPNSFDHIFTHISRSQNQQYLVRASYLEIYQEEIRDLLSKDQTKRLELKERPDTGVYVKDLSSFVTKSVKEIEHVMNVGNQNRSVGATNMNEHSSRSHAIFVITIECSEVGLDGENHIRVGKLNLVDLAGSERQAKTGAQGERLKEATKINLSLSALGNVISALVDGKSTHIPYWDSKLTRLLQDSLGGNAKTVMVANVGPASYNVEETLTTLRYANRAKNIKNKPRVNEDPKDALLREFQEEIARL
# Molecular target: polymerized microtubules
protein,measurement,value
B1,"rate of ATP hydrolysis (kinesin ATPase end-point assay, free phosphate) with increasing amounts of microtubules","When compared to wild-type, the mutant motor domain displayed a significantly reduced rate of ATP hydrolysis upon incubation with various concentrations of microtubules"
